The record followed here is paper PMC10545799.

Usually stoichiometry N stands for a count of units in the complex or per binding partner.

The target of test [1] is dsc-Agg5A (donor strand complemented major pilin subunit Agg5A of AAF/V) (enteroaggregative E. coli). Briefly: SAXS; engineered subunit samples (monomer fractions of the gel filtration) in solution, 10 °C, dilutions 1:1 and 1:2; molecular weight and aggregation number from Guinier analysis; self-association.
Test [2] deals with dsc-Agg5AB (chimeric donor strand complemented construct of minor pilin subunit Agg3B and major pilin subunit Agg5A) (enteroaggregative E. coli). The test is described as above.

For “dsc-Agg5A (donor strand complemented major pilin subunit Agg5A of AAF/V) (domain or fragment)”, the stoichiometry N in test [1] was found to be 2.

In the case of “dsc-Agg5AB (chimeric donor strand complemented construct of minor pilin subunit Agg3B and major pilin subunit Agg5A)”, in test [2], the stoichiometry N came to 6.8.
